Reference: US20250381223A1 (UTC THERAPEUTICS SHANGHAI, published 2025)

B1: anti-mesothelin scFv-M24 (scFv)
scFv: QPVLTQPPSASGTPGQRVTISCSGSSSNIGSNYVYWYQQFPGTAPKLLIYMNNQRPSGVPDRFSGSKSGTSASLAISGLRSEDEADYYCAARDDSLSGYVTFGGGTKLTVLGGGGSGGGGSGGGGSEVHLVESGGGLVQPGGSLRLSCAASGFTFSSYAMSWVRQAPGKGLEWVSAISGSGGSTYYADSVKGRFTISRDNSKNTLYLQMNSLKTEDTAVYYCTRGVATFDYWGQGTLVTVSS
notes: On mRNA-electroporated T cells as CAR
B2: anti-mesothelin scFv-M22 (scFv)
scFv: QSALTQPASVSGSPGQSITLSCTGTRRDIGGYEYVSWYQQHPGKAPKLLIFSVNNRPSGVSHRFSGSKSGNTASLTISGLQAEDEAAYFCSSYSSRDTLVLFGGGTKLTVLGGGGSGGGGSGGGGSQVQLVQSGAEVKKPGSSVKVSCKASGGTFSSYAISWVRQAPGQGLEWMGGIIPIFGTANYAQKFQGRVTITADESTSTAYMELSSLRSEDTAVYYCASGRSGSYGLYWGQGTLVTVSS
notes: as for B1
B3: anti-mesothelin scFv-M20 (scFv)
scFv: AIQMTQSPSSLSASVGNRVTITCRASQGISSAVAWYQQKPGKPPKLLISYASSLESGVPSRFSGSGSGTDFSLTISSLQPEDFATYFCQQFNSYPLTFGGGTKVEIKGGGGSGGGGSGGGGSQVQLVQSGAEVRKPGESLKISCKGSGYSFRDSWIAWVRQMPGQGLEWMGIIFPGDSNPIYSPSFQGQVTISADTSISTTFLQWRSLKASDSAIYYCARHAAWGAGWFDPWGQGTLVTVSS
notes: as for B1
B4: anti-mesothelin scFv-M27 (scFv)
scFv: EIVLTQSPGTLSLSPGERATLSCRASQPIVASHLAWYQHKPGQAPRLLIYGASTRAAGIPDRFSGSGSGTDFTLTISRLEPEDFAVYFCQQYGISPFTFGPGTKVDIKGGGGSGGGGSGGGGSQVQLVQSGAEVKKPGESLKISCQGSGYSFTDYWIGWVRQAPGQGLEWMGWITPNNGNTNYAPKFQGRVTLTTDTSTSTAYMELRSLTSDDTAVYFCARRGRNSSGYLYYYSMDVWGQGTTVTVSS
notes: as for B1
B5: anti-mesothelin scFv-M28 (scFv)
scFv: QSALTQPPSASGSPGQSVTISCSGTSSDVGGYNFVSWYQHHPGKAPKLMIYEVSKRPSGVPDRFSGSKSGNTASLTVSGLQAEDEADYYCSSYAGRNNPYLFGTGTKLTVLGGGGSGGGGSGGGGSQLQLQESGAEVKKPGSSVKVSCKASGGTFSSYAISWVRQAPGQGLEWMGGIIPIFGTANYAQKFQGRVTITADESTSTAYMELSSLRSEDTAVYYCARDLGGYSYGHGLDYWGQGTLVTVSS
notes: as for B1
B6: 4.4 (bispecific antibody)
scFv-G4S-scFv: QVKLQESGPGLVKPSETLSITCTVSGFSLSDYGVHWVRQSPGKGLEWLGVIWAGGGTNYNSALMSRKTISKDNSKSQVFLKMSSLTAADTAVYYCARDKGYSYYYSMDYWGQGTTVTVSSGGGGSGGGGSGGGGSDIQLTQSPSSLSVSVGDRVTISCRASESVEYYVTSLMQWYQQKPGQAPKLLIFAASNVESGVPSRFSGSGSGTNFTLTISSVQEEDFAMYFCQQSRKVPYTFGGGTKLEIKGGGGSQVQLVQSGAEVKKPGSSVKVSCKASGGTFSSYAISWVRQAPGQGLEWMGMINPSGGTTSYAQKFQGRVTMTRDTSTSTVYMELSSLRPEDTAVYYCARGFRMDQWGQGTLVTVSSGGGGSGGGGSGGGGSQSALTQPPSASGSPGQSVTISCTGTSSDVGAYNFVSWYQQHPGNAPKLIIYDVRKRPSGIPDRFSASKSGNTASLTVSGLQADDEADYYCSSYAGNNNLVFGGGTKLTVL
notes: expressed from mRNA in T cells
B7: 8.6 (bispecific antibody)
scFv-G4S-scFv: QVQLVQSGAEVKKPGSSVKVSCKASGGTFSSYAISWVRQAPGQGLEWMGMINPSGGTTSYAQKFQGRVTMTRDTSTSTVYMELSSLRPEDTAVYYCARGFRMDQWGQGTLVTVSSGGGGSGGGGSGGGGSQSALTQPPSASGSPGQSVTISCTGTSSDVGAYNFVSWYQQHPGNAPKLIIYDVRKRPSGIPDRFSASKSGNTASLTVSGLQADDEADYYCSSYAGNNNLVFGGGTKLTVLGGGGSQVKLQQSGPGLVTPSQSLSITCTVSGFSLSDYGVHWVRQSPGQGLEWLGVIWAGGGTNYNSALMSRKSISKDNSKSQVFLKMNSLQADDTAVYYCARDKGYSYYYSMDYWGQGTTVTVSSGGGGSGGGGSGGGGSDIVLTQSPASLAVSLGQRATISCRASESVEYYVTSLMQWYQQKPGQPPKLLIFAASNVESGVPARFSGSGSGTNFSLNIHPVDEDDVAMYFCQQSRKVPYTFGGGTKLEIK
notes: as for B6
B8: 4.5 (bispecific antibody)
scFv-G4S-scFv: QVQLVQSGAEVKKPGSSVKVSCKASGGTFSSYAISWVRQAPGQGLEWMGMINPSGGTTSYAQKFQGRVTMTRDTSTSTVYMELSSLRPEDTAVYYCARGFRMDQWGQGTLVTVSSGGGGSGGGGSGGGGSQSALTQPPSASGSPGQSVTISCTGTSSDVGAYNFVSWYQQHPGNAPKLIIYDVRKRPSGIPDRFSASKSGNTASLTVSGLQADDEADYYCSSYAGNNNLVFGGGTKLTVLGGGGSDIQLTQSPSSLSVSVGDRVTISCRASESVEYYVTSLMQWYQQKPGQAPKLLIFAASNVESGVPSRFSGSGSGTNFTLTISSVQEEDFAMYFCQQSRKVPYTFGGGTKLEIKGGGGSGGGGSGGGGSQVKLQESGPGLVKPSETLSITCTVSGFSLSDYGVHWVRQSPGKGLEWLGVIWAGGGTNYNSALMSRKTISKDNSKSQVFLKMSSLTAADTAVYYCARDKGYSYYYSMDYWGQGTTVTVSS
notes: as for B6
B9: 4.3 (bispecific antibody)
scFv-G4S-scFv: QVKLQESGPGLVKPSETLSITCTVSGFSLSDYGVHWVRQSPGKGLEWLGVIWAGGGTNYNSALMSRKTISKDNSKSQVFLKMSSLTAADTAVYYCARDKGYSYYYSMDYWGQGTTVTVSSGGGGSGGGGSGGGGSDIQLTQSPSSLSVSVGDRVTISCRASESVEYYVTSLMQWYQQKPGQAPKLLIFAASNVESGVPSRFSGSGSGTNFTLTISSVQEEDFAMYFCQQSRKVPYTFGGGTKLEIKGGGGSQSALTQPPSASGSPGQSVTISCTGTSSDVGAYNFVSWYQQHPGNAPKLIIYDVRKRPSGIPDRFSASKSGNTASLTVSGLQADDEADYYCSSYAGNNNLVFGGGTKLTVLGGGGSGGGGSGGGGSQVQLVQSGAEVKKPGSSVKVSCKASGGTFSSYAISWVRQAPGQGLEWMGMINPSGGTTSYAQKFQGRVTMTRDTSTSTVYMELSSLRPEDTAVYYCARGFRMDQWGQGTLVTVSS
notes: as for B6
B10: 4.6 (bispecific antibody)
scFv-G4S-scFv: QVQLVQSGAEVKKPGSSVKVSCKASGGTFSSYAISWVRQAPGQGLEWMGMINPSGGTTSYAQKFQGRVTMTRDTSTSTVYMELSSLRPEDTAVYYCARGFRMDQWGQGTLVTVSSGGGGSGGGGSGGGGSQSALTQPPSASGSPGQSVTISCTGTSSDVGAYNFVSWYQQHPGNAPKLIIYDVRKRPSGIPDRFSASKSGNTASLTVSGLQADDEADYYCSSYAGNNNLVFGGGTKLTVLGGGGSQVKLQESGPGLVKPSETLSITCTVSGFSLSDYGVHWVRQSPGKGLEWLGVIWAGGGTNYNSALMSRKTISKDNSKSQVFLKMSSLTAADTAVYYCARDKGYSYYYSMDYWGQGTTVTVSSGGGGSGGGGSGGGGSDIQLTQSPSSLSVSVGDRVTISCRASESVEYYVTSLMQWYQQKPGQAPKLLIFAASNVESGVPSRFSGSGSGTNFTLTISSVQEEDFAMYFCQQSRKVPYTFGGGTKLEIK
notes: as for B6
B11: 4.7 (bispecific antibody)
scFv-G4S-scFv: QSALTQPPSASGSPGQSVTISCTGTSSDVGAYNFVSWYQQHPGNAPKLIIYDVRKRPSGIPDRFSASKSGNTASLTVSGLQADDEADYYCSSYAGNNNLVFGGGTKLTVLGGGGSGGGGSGGGGSQVQLVQSGAEVKKPGSSVKVSCKASGGTFSSYAISWVRQAPGQGLEWMGMINPSGGTTSYAQKFQGRVTMTRDTSTSTVYMELSSLRPEDTAVYYCARGFRMDQWGQGTLVTVSSGGGGSQVKLQESGPGLVKPSETLSITCTVSGFSLSDYGVHWVRQSPGKGLEWLGVIWAGGGTNYNSALMSRKTISKDNSKSQVFLKMSSLTAADTAVYYCARDKGYSYYYSMDYWGQGTTVTVSSGGGGSGGGGSGGGGSDIQLTQSPSSLSVSVGDRVTISCRASESVEYYVTSLMQWYQQKPGQAPKLLIFAASNVESGVPSRFSGSGSGTNFTLTISSVQEEDFAMYFCQQSRKVPYTFGGGTKLEIK
notes: as for B6
B12: 4.8 (bispecific antibody)
scFv-G4S-scFv: QSALTQPPSASGSPGQSVTISCTGTSSDVGAYNFVSWYQQHPGNAPKLIIYDVRKRPSGIPDRFSASKSGNTASLTVSGLQADDEADYYCSSYAGNNNLVFGGGTKLTVLGGGGSGGGGSGGGGSQVQLVQSGAEVKKPGSSVKVSCKASGGTFSSYAISWVRQAPGQGLEWMGMINPSGGTTSYAQKFQGRVTMTRDTSTSTVYMELSSLRPEDTAVYYCARGFRMDQWGQGTLVTVSSGGGGSDIQLTQSPSSLSVSVGDRVTISCRASESVEYYVTSLMQWYQQKPGQAPKLLIFAASNVESGVPSRFSGSGSGTNFTLTISSVQEEDFAMYFCQQSRKVPYTFGGGTKLEIKGGGGSGGGGSGGGGSQVKLQESGPGLVKPSETLSITCTVSGFSLSDYGVHWVRQSPGKGLEWLGVIWAGGGTNYNSALMSRKTISKDNSKSQVFLKMSSLTAADTAVYYCARDKGYSYYYSMDYWGQGTTVTVSS
notes: as for B6

Biological target: T1, mesothelin-Fc recombinant protein (human, UniProt Q13421 296-580, limits assumed)
T1 construct: construct not described; also called Meso-Fc; not shown: Fc part
Test: flow cytometry, T cells with CAR mRNA, mesothelin-Fc + PE-anti-IgG-Fc; Control 0.97
Procedure: Mesothelin CAR mRNA obtained in Example 26 above was introduced into A549 tumor cells and T cells by electroporation, and the procedures are as follows: A549 tumor cells and T cells were collected and washed 3 times with the Opti-MEM medium. The cell pellet was resuspended in the Opti-MEM medium and the cell concentration was adjusted to 1×10e7 cells/mL. 10 μg of RNA was aliquoted into 1.5-mL EP tubes, 100 μL of T cells or A549 cells were added, followed by mixing well. 100 μL of cells mixed with RNA were added to the BTX electroporation cuvette and slight tapping was performed to avoid air bubbles. Electroporation was performed using a BTX instrument under the following parameters: for T cells: 500 V voltage, 0.7 ms; for A549 tumor cells: 300 V voltage, 0.5 ms. The cells were then transferred to a pre-warmed medium and cultured at 37° C. The binding of mesothelin CART cells to the mesothelin-Fc recombinant protein was determined by FACS staining. […] T cells without CAR molecules served as the control (“Mock”).

T1 sequence (Q13421 other isoform, or with tags, fused parts or gaps limits assumed): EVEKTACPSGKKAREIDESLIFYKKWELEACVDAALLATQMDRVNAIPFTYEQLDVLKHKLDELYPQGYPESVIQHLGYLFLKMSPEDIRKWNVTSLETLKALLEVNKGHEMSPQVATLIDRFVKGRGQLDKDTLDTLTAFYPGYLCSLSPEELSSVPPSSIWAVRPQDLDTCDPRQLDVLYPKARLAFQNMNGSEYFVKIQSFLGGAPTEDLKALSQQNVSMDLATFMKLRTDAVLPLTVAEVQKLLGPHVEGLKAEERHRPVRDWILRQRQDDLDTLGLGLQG

Binder | percent of cells in the gate
B1 | 93.6%
B2 | 80%
B3 | 75.6%
B4 | 76.3%
B5 | 82.8%

Biological target: T2, CD40-Fc (human, UniProt P25942)
T2 construct: part fused to Fc; staining reagent of the flow cytometry; also called recombinant human CD40-Fc antigen protein
Test: flow cytometry of T cells co-electroporated with 15 µg diabody mRNA and 2 µg M12 CAR mRNA; CD40-Fc + PE-anti-Fc; E1 without mRNA: 0.56

Binder | % of cells in the positive gate
B6 | 51
B7 | 98.3
B8 | 65
B9 | 36.3
B10 | 97.9
B11 | 95.8
B12 | 88.5

Biological target: T2, CD40-Fc
Test: flow cytometry of T cells co-electroporated with 15 µg diabody mRNA and 0.5 µg 4D5.BBZ mRNA; CD40-Fc + PE-anti-IgG-Fc; E1 without mRNA: 0.27

Binder | % of cells in the positive gate
B6 | 55.4
B7 | 98.6
B8 | 72.2
B9 | 43.5
B10 | 98.5
B11 | 96.1
B12 | 90.2
